The test system of series [1] is TTR. Kind of series: TTR editing in primary cyno hepatocytes electroporated with Spy Cas9 protein and sgRNAs (Tables 14, 15). It counts as cell-based, cynomolgus monkey. The settings on record: Table 15; primary cyno hepatocytes electroporated with Spy Cas9 protein (RNP) and cyno specific sgRNAs. As to the method: (§1) Primary liver hepatocytes. Primary human liver hepatocytes (PHH) and primary cynomolgus liver hepatocytes (PCH) (Gibco) were cultured per the manufacturer's protocol (Invitrogen, protocol 11.28.2012). In brief, the cells were thawed and resuspended in hepatocyte thawing medium with supplements (Gibco, Cat. CM7000) followed by centrifugation at 100 g for 10 minutes for human and 80 g for 4 minutes for cyno. The supernatant was discarded and the pelleted cells resuspended in hepatocyte plating medium plus supplement pack (Invitrogen, Cat. A1217601 and CM3000). Cells were counted and plated on Bio-coat collagen I coated 96-well plates (ThermoFisher, Cat. 877272) at a density of 33,000 cells/well for human or 60,000 cells/well for cyno (or 65,000 cells/well when assaying effects on TTR protein, described further below). Plated cells were allowed to settle and adhere for 6 or 24 hours in a tissue culture incubator at 37° C. and 5% CO2 atmosphere. After incubation cells were checked for monolayer formation and media was replaced with hepatocyte culture medium with serum-free supplement pack (Invitrogen, Cat. A1217601 and CM4000).
[…] formation was performed prior to electroporation or transfection of Spy Cas9 protein loaded with guide RNAs (RNPs) onto cells. For dual guide (dgRNAs), individual crRNA and trRNA was pre-annealed by mixing equivalent amounts of reagent and incubating at 95° C. for 2 min and cooling to room temperature. Single guide (sgRNAs) were boiled at 95° C. for 2 min and cooling to room temperature. The boiled dgRNA or sgRNA was incubated with Spy Cas9 protein in Optimem for 10 minutes at room temperature to form a ribonucleoprotein (RNP) complex.
For RNP electroporation into primary human and cyno hepatocytes, the cells are thawed and resuspended in Lonza electroporation Primary Cell P3 buffer at a concentration of 2500 cells per μL for human hepatocytes and 3500 cells per μL for cyno hepatocytes. A volume of 20 μL of resuspended cells and 5 μL of RNP are mixed together per guide. 20 μL of the mixture is placed into a Lonza electroporation plate. The cells were electroporated using the Lonza nucleofector with the preset protocol EX-147. Post electroporation, the cells are transferred into a Biocoat plate containing pre-warmed maintenance media and placed in a tissue culture incubator at 37° C. and 5% CO2.
Transfected cells were harvested post-transfection at 24, 48, or 72 hours. The genomic DNA was extracted from each well of a 96-well plate using 50 μL/well BuccalAmp DNA Extraction solution (Epicentre, Cat. QE09050) per manufacturer's protocol. All DNA samples were subjected to PCR and subsequent NGS analyses, as described herein.
(§2) To quantitatively determine the efficiency of editing at the target location in the genome, sequencing was utilized to identify the presence of insertions and deletions introduced by gene editing.
(§3) Primers were designed around the target site within the gene of interest (e.g. TTR), and the genomic area of interest was amplified.
(§4) Additional PCR was performed per the manufacturer's protocols (Illumina) to add chemistry for sequencing. The amplicons were sequenced on an Illumina MiSeq instrument. The reads were aligned to a reference genome (e.g., the human reference genome (hg38), the cynomologus reference genome (mf5), the rat reference genome (rn6), or the mouse reference genome (mm10)) after eliminating those having low quality scores. The resulting files containing the reads were mapped to the reference genome (BAM files), where reads that overlapped the target region of interest were selected and the number of wild type reads versus the number of reads which contain an insertion, substitution, or deletion was calculated.
The editing percentage (e.g., the “editing efficiency” or “percent editing” or “indel frequency”) is defined as the total number of sequence reads with insertions/deletions (“indels”) or substitutions over the total number of sequence reads, including wild type. […]

In series [2] the test system is TTR. Kind of series: TTR editing in primary cyno hepatocytes treated with LNP formulated Spy Cas9 mRNA (SEQ ID NO: 2) and sgRNAs (Tables 17, 18). The settings on record: LNP formulated Spy Cas9 mRNA (SEQ ID NO: 2) and cyno matched sgRNAs, 72 hours post treatment. It counts as cell-based, cynomolgus monkey. As to the method:
as §1
In general, the lipid nanoparticle components were dissolved in 100% ethanol with the lipid component of various molar ratios. The RNA cargos were dissolved in 25 mM citrate, 100 mM NaCl, pH 5.0, resulting in a concentration of RNA cargo of approximately 0.45 mg/mL. The LNPs were formulated with a lipid amine to RNA phosphate (N:P) molar ratio of about 4.5 or about 6, with the ratio of mRNA to gRNA at 1:1 by weight.
The LNPs were formed by microfluidic mixing of the lipid and RNA solutions using a Precision Nanosystems NanoAssemblr™ Benchtop Instrument, according to the manufacturer's protocol. A 2:1 ratio of aqueous to organic solvent was maintained during mixing using differential flow rates. After mixing, the LNPs were collected, diluted in water (approximately 1:1 v/v), held for 1 hour at room temperature, and further diluted with water (approximately 1:1 v/v) before final buffer exchange. The final buffer exchange into 50 mM Tris, 45 mM NaCl, 5% (w/v) sucrose, pH 7.5 (TSS) was completed with PD-10 desalting columns (GE). If required, formulations were concentrated by centrifugation with Amicon 100 kDa centrifugal filters (Millipore). The resulting mixture was then filtered using a 0.2 μm sterile filter. The final LNP was stored at −80° C. until further use.
as §2, §3, §4
(§5) The editing percentage (e.g., the “editing efficiency” or “percent editing” or “indel frequency”) is defined as the total number of sequence reads with insertions/deletions (“indels”) or substitutions over the total number of sequence reads, including wild type.
Lipid nanoparticle formulations of modified sgRNAs targeting human TTR and the cyno matched sgRNA sequences were tested on primary human hepatocytes and primary cyno hepatocytes in a dose response curve. Primary human and cyno hepatocytes were plated as described in Example 1. […]

Series [3] has as its system TTR. Kind of series: EC50 and maximum editing in primary human hepatocytes treated with LNP formulated U-depleted Spy Cas9 mRNA and sgRNAs (Tables 19, 21). It counts as cell-based. The settings on record: Table 21, LNP with U-depleted Spy Cas9 mRNA and cyno specific sgRNAs, dose response. Also on record: key: % of sequence reads with indels or substitutions over total reads. The procedure:
as §1
(§6) For LNPs prepared using the cross-flow technique, the LNPs were formed by impinging jet mixing of the lipid in ethanol with two volumes of RNA solutions and one volume of water. The lipid in ethanol is mixed through a mixing cross with the two volumes of RNA solution. A fourth stream of water is mixed with the outlet stream of the cross through an inline tee. (See WO2016010840 FIG. 2.) The LNPs were held for 1 hour at room temperature, and further diluted with water (approximately 1:1 v/v). Diluted LNPs were concentrated using tangential flow filtration on a flat sheet cartridge (Sartorius, 100 kD MWCO) and then buffer exchanged by diafiltration into 50 mM Tris, 45 mM NaCl, 5% (w/v) sucrose, pH 7.5 (TSS). Alternatively, the final buffer exchange into TSS was completed with PD-10 desalting columns (GE). If required, formulations were concentrated by centrifugation with Amicon 100 kDa centrifugal filters (Millipore). The resulting mixture was then filtered using a 0.2 μm sterile filter. The final LNP was stored at 4° C. or −80° C. until further use.
as §2, §3, §4, §5
(§7) Lipid nanoparticle formulations of modified sgRNAs targeting human TTR and the cyno matched sgRNA sequences were tested on primary human hepatocytes and primary cyno hepatocytes in a dose response curve. Primary human and cyno hepatocytes were plated as described in Example 1. Both cell lines were incubated at 37° C., 5% CO2 for 24 hours prior to treatment with LNPs. […]

Series [4] concerns TTR. Kind of series: EC50 and maximum editing in primary cyno hepatocytes treated with LNP formulated U-depleted Spy Cas9 mRNA and sgRNAs (Tables 20, 22). It counts as cell-based, cynomolgus monkey. Set-up: key: % of sequence reads with indels or substitutions over total reads. The settings on record: Table 22, LNP with U-depleted Spy Cas9 mRNA and cyno specific sgRNAs, dose response. As to the method: as §1, §6, §2, §3, §4, §5, §7

Results on five molecules are retold here after patent US11795460B2, “Compositions and methods for TTR gene editing and treating ATTR amyloidosis” (Intellia Therapeutics, Inc., priority 2017, dated 2023).

Strand notation (5' to 3'): a small letter for the sugar, then the base; units joined by * are phosphorothioate-linked, units joined directly phosphodiester-linked; [ ] holds rarer units or linkages, { } end groups; capitals alone tell only the bases. m = 2'-O-methyl; r = 2'-OH (RNA)

B1: G000510: TTR Cyno specific sgRNA modified sequence, SEQ ID No. 122; guide sequence of CR005370 (nucleic acid)
guide: mA*mC*mU*rUrGrUrCrUrUrCrUrCrUrArUrArCrCrCrArGrUrUrUrUrArGrAmGmCmUmAmGmAmAmAmUmAmGmCrArArGrUrUrArArArArUrArArGrGrCrUrArGrUrCrCrGrUrUrArUrCrAmAmCmUmUmGmAmAmAmAmAmGmUmGmGmCmAmCmCmGmAmGmUmCmGmGmUmGmCmU*mU*mU*mU
As to B1, in the series on TTR [1], the “Avg % Deletion” value was found to be 1.77%, the “Avg % Edit” value is given as 90.80% and the “Avg % Insert” value was determined as 89.13%. In addition, the “12.5 ng mRNA, 3.9 nM sgRNA % Edit” value in the series with TTR [2] was found to be 61.87%.

B2: G000505: TTR Cyno specific sgRNA modified sequence, SEQ ID No. 117; guide sequence of CR005365 (nucleic acid)
guide: mC*mA*mU*rUrGrArCrArGrCrArGrGrArCrUrGrCrCrUrGrUrUrUrUrArGrAmGmCmUmAmGmAmAmAmUmAmGmCrArArGrUrUrArArArArUrArArGrGrCrUrArGrUrCrCrGrUrUrArUrCrAmAmCmUmUmGmAmAmAmAmAmGmUmGmGmCmAmCmCmGmAmGmUmCmGmGmUmGmCmU*mU*mU*mU
In the case of B2, in the series on TTR [3], the “Max Editing” value is on record as 13.48. For the same molecule, in the series on TTR [1], the “Avg % Deletion” value turned out to be 0.10%, the “Avg % Edit” value is recorded as 95.53% and the “Avg % Insert” value was 95.50%. Further, the “Max Editing” value in the series with TTR [4] is recorded as 99.97.

B3: G000506: TTR Cyno specific sgRNA modified sequence, SEQ ID No. 118; guide sequence of CR005366 (nucleic acid)
guide: mA*mU*mA*rCrCrArGrUrCrCrArGrCrGrArGrGrCrArGrGrUrUrUrUrArGrAmGmCmUmAmGmAmAmAmUmAmGmCrArArGrUrUrArArArArUrArArGrGrCrUrArGrUrCrCrGrUrUrArUrCrAmAmCmUmUmGmAmAmAmAmAmGmUmGmGmCmAmCmCmGmAmGmUmCmGmGmUmGmCmU*mU*mU*mU
Turning to B3, the “Max Editing” value in the series on TTR [3] was 89.49. Besides, in the series with TTR [1], the “Avg % Deletion” value stood at 3.07%, the “Avg % Edit” value stood at 89.43% and the “Avg % Insert” value worked out at 86.90%. Moreover, in the series with TTR [2], the “12.5 ng mRNA, 3.9 nM sgRNA % Edit” value was determined as 60.13%. Moreover, the “Max Editing” value in the series with TTR [4] came to 99.18.

B4: G000504: TTR Cyno specific sgRNA modified sequence, SEQ ID No. 116; guide sequence of CR005364 (nucleic acid)
guide: mA*mA*mA*rGrGrCrUrGrCrUrGrArUrGrArGrArCrCrUrGrUrUrUrUrArGrAmGmCmUmAmGmAmAmAmUmAmGmCrArArGrUrUrArArArArUrArArGrGrCrUrArGrUrCrCrGrUrUrArUrCrAmAmCmUmUmGmAmAmAmAmAmGmUmGmGmCmAmCmCmGmAmGmUmCmGmGmUmGmCmU*mU*mU*mU
With B4, in the series on TTR [3], the “Max Editing” value amounted to 7.16. Further, in the series on TTR [1], the “Avg % Deletion” value was 7.53%, the “Avg % Edit” value was determined as 77.17% and the “Avg % Insert” value worked out at 69.73%. In addition, in the series with TTR [4], the “Max Editing” value is 98.04.

B5: G000503: TTR Cyno specific sgRNA modified sequence, SEQ ID No. 115; guide sequence of CR005372 (nucleic acid)
guide: mA*mA*mA*rArGrGrCrUrGrCrUrGrArUrGrArGrArCrCrGrUrUrUrUrArGrAmGmCmUmAmGmAmAmAmUmAmGmCrArArGrUrUrArArArArUrArArGrGrCrUrArGrUrCrCrGrUrUrArUrCrAmAmCmUmUmGmAmAmAmAmAmGmUmGmGmCmAmCmCmGmAmGmUmCmGmGmUmGmCmU*mU*mU*mU
In the case of B5, in the series on TTR [1], the “Avg % Deletion” value is 6.50%, the “Avg % Edit” value is 58.53% and the “Avg % Insert” value was 52.07%. For the same molecule, the “Max Editing” value with TTR [4] is 83.41.
